Data reported in patent US20030138894.

Tested on: ACE-2 inhibitor peptide (the most active ACE-2 inhibitor peptide, Example 9)

Substance | conversion of angiotensin I to A1-9 by ACE-2 | hydrolysis of the substrate, hip his-leu (250 mM) by ACE (1.5 nM)
recombinant human-ACE-2 | This peptide also inhibited conversion of angiotensin I to A1-9 by ACE-2. | 
Angiotensin converting enzyme (ACE) |  | the inhibitor did not affect the hydrolysis of the substrate, hip his-leu (250 mM) by ACE (1.5 nM), even at 25 mM
